Legend:
[1] = Diffusion coefficient of free Aβ42 in solution by MDS; assay type: physicochemical; conditions: Stokes-Einstein equation from hydrodynamic radius measured by MDS
[2] = Susceptibility of Aβ42 condensates to 1,6-hexanediol and KCl in vitro; assay type: physicochemical; conditions: confocal microscopy
[3] = tested on: human neuroblastoma SH-SY5Y cells; assay: Aβ42 aggregates on SH-SY5Y cells with or without 1,6-hexanediol treatment; assay type: cell-based
[4] = assay type: physicochemical

| Compound | diffusion coefficient of Aβ42 in solution [1] | response of mature Aβ42 condensates to 100% 1,6-hexanediol ([2]; condensates incubated 22 h on DMPC membrane, 100% (6 M) HXD) | response of Aβ42 condensates to 50% 1,6-hexanediol ([2]; condensates on lipid membrane, 50% HXD) | area of Aβ42 species at high cell densities ([3]; SH-SY5Y 40 000 cells/well, 2 μM monomer, 48 h incubation) | timescale for the direct solution to amyloid fibril transition ([4]; estimated from Figure 6d (FCS, non-LLPS conditions)) | ΔG^‡LLPS, free energy barrier for monomeric to liquid transition ([4]; from t = 3 h, c = 2 μM) | ΔG^‡LTS, free energy barrier for liquid to solid transition ([4]; from t = 21 h) | decrease of Aβ42 aggregate number normalised by total cell area, versus vehicle ([3]; SH-SY5Y cells, 2 μM Aβ42 monomer for 16 h, then 2.5% w/v 1,6-hexanediol) |
| --- | --- | --- | --- | --- | --- | --- | --- | --- |
| amyloid β1-42 [Aβ42] | 1.4 ± 0.1 × 10^−10 m^2s^−1 | remained intact | dissolved | < 50 µm^2 | 61 h | 8.01 kcal/mol | 8.05 kcal/mol |  |
| OCCCCCCO [HXD, 1,6-hexanediol, reference compound] |  |  |  |  |  |  |  | 30% |

— publication doi:10.1101/2024.01.14.575549v2 (bioRxiv, 2024)
